# How the values were obtained:
# Experiment in all cases: cell-based or functional assay
# [1] = target: sortase-ligated phosphopeptide β2AR reconstituted in HDL particles (HDL-β2ARpp) (human) (UniProt P07550)
# [2] = target: phosphopeptide-ligated β2AR with a deletion of the third intracellular loop (β2ARppΔ238-267), in HDL particles (human) (UniProt P07550)
# [3] = target: β2AR ligated to a non-phosphorylated version of the V2R peptide, in HDL particles (β2ARnp) (human) (UniProt P07550)
# [4] = target: wild-type (WT) β2AR reconstituted in high-density lipoprotein particles (HDL-β2AR), non-phosphorylated (human) (UniProt P07550)
Substance,"log IC50 of isoproterenol (ISO), competition radioligand binding, in the presence of βarr1 Δ62-77 (no transducer: -6.30+/-0.05) [1] [log]","log IC50 of isoproterenol (ISO), competition radioligand binding, in the presence of Gs (no transducer: -6.91+/-0.04) [2] [log]","log IC50 of isoproterenol (ISO), [125I]-CYP competition binding, in the presence of Gs (no transducer: -6.42+/-0.09) [3] [log]",fold increase of isoproterenol affinity by the transducer [1] [fold],"log IC50 of isoproterenol (ISO), [125I]-CYP competition binding, in the presence of Gs (no transducer: -6.24+/-0.04) [1] [log]",fold increase of isoproterenol affinity by the transducer [4] [fold],"log IC50 of isoproterenol (ISO), [125I]-CYP competition binding, in the presence of Gs (no transducer: -6.82+/-0.03) [4] [log]","log IC50 of isoproterenol (ISO), [125I]-CYP competition binding, in the presence of βarr1 (no transducer: -6.24+/-0.04) [1] [log]","log IC50 of isoproterenol (ISO), competition radioligand binding, in the presence of βarr1 (no transducer: -6.30+/-0.05) [1] [log]"
finger loop deletion mutant of β-arrestin1 (βarr1 Δ62-77) in βarr1-MC-393 (from UniProt P29066 1-61; P29066 78-393),-6.48,–,–,–,–,–,–,–,–
"heterotrimeric Gs protein (short Gαs splice variant, Gβ1-His6, Gγ2) (from UniProt P62873 2-340; P59768 2-68)",–,-8.85,-9.02,800,-9.15,1000,-8.88,–,–
"β-arrestin1, minimal cysteine and truncated variant of rat βarr1 (βarr1-MC-393) (from UniProt P29066 1-393)",–,–,–,9,–,–,–,-7.14,-7.25

# Reference: patent US20240101642A1
